# Source: patent US20250277018A1 (published 2025)
# B1: rat (other)
# chain: EAHKSEIAHRFKDLGEQHFKGLVLIAFSQYLQKCPYEEHIKLVQEVTDFAKTCVADENAENCDKSIHTLFGDKLCAIPKLRDNYGELADCCAKQEPERNECFLQHKDDNPNLPPFQRPEAEAMCTSFQENPTSFLGHYLHEVARRHPYFYAPELLYYAEKYNEVLTQCCTESDKAACLTPKLDAVKEKALVAAVRQRMKCSSMQRFGERAFKAWAVARMSQRFPNAEFAEITKLATDVTKINKECCHGDLLECADDRAELAKYMCENQATISSKLQACCDKPVLQKSQCLAEIEHDNIPADLPSIAADFVEDKEVCKNYAEAKDVFLGTFLYEYSRRHPDYSVSLLLRLAKKYEATLEKCCAEGDPPACYGTVLAEFQPLVEEPKNLVKTNCELYEKLGEYGFQNAVLVRYTQKAPQVSTPTLVEAARNLGRVGTKCCTLPEAQRLPCVEDYLSAILNRLCVLHEKTPVSEKVTKCCSGSLVERRPCFSALTVDETYVPKEFKAETFTFHSDICTLPDKEKQIKKQTALAELVKHKPKATEDQLKTVMGDFAQFVDKCCKAADKDNCFATEGPNLVARSKEALA
# Columns and labels:
# Assay in all cases: ELISA
# 4A01v1 = molecular target: 4A01v1
# 4A01v3-7 = molecular target: 4A01v3-7
# 4A01v3-8 = molecular target: 4A01v3-8
# 4A01v3-3 = molecular target: 4A01v3-3
# 4A01v3-4 = molecular target: 4A01v3-4
# 4A01v9 = molecular target: 4A01v9
# 4A01v3 = molecular target: 4A01v3
# 4A01v3-1 = molecular target: 4A01v3-1
# 4A01v3-5 = molecular target: 4A01v3-5
# 4A01v5 = molecular target: 4A01v5
# 4A01v4 = molecular target: 4A01v4
# 4A01v6 = molecular target: 4A01v6
# 4A01v8 = molecular target: 4A01v8
binder,measurement,setting,value
B1,Kd,4A01v1,0.184 nM
same,Kd,4A01v3-7,0.123 nM
same,Kd,4A01v3-8,0.169 nM
same,Kd,4A01v3-3,0.152 nM
same,Kd,4A01v3-4,0.252 nM
same,Kd,4A01v9,0.144 nM
same,Kd,4A01v3,0.162 nM
same,Kd,4A01v3-1,0.13 nM
same,Kd,4A01v3-5,0.162 nM
same,Kd,4A01v5,0.26 nM
same,Kd,4A01v4,0.32 nM
same,Kd,4A01v6,0.273 nM
same,Kd,4A01v8,0.328 nM
